The record followed here is patent US20070248604A1 (Genentech, published 2007).

A word on the EC50 (read off the curve): it is the concentration giving half of the maximal effect. As a reminder, the EC50 is the midpoint of the concentration-response curve. Higher therefore signals lower potency in that assay. As usually defined, the IC50 is the point on the concentration scale where inhibition reaches its midpoint. Read a high IC50 as lower potency. The term Kd denotes a measure of binding affinity in units of concentration. Read a low Kd as tighter binding.

The target of experiment [1] is T1, FGF19 protein (human, UniProt O95750 25-216, limits assumed).
T1 construct: 125I-labelled for the Scatchard analysis. 'Human' is stated for hu FGF-19-His and for the anti-human FGF19 antibodies, not in these assay descriptions; also called Fibroblast growth factor 19; [125I]FGF19
T1 sequence (O95750 25-216 limits assumed): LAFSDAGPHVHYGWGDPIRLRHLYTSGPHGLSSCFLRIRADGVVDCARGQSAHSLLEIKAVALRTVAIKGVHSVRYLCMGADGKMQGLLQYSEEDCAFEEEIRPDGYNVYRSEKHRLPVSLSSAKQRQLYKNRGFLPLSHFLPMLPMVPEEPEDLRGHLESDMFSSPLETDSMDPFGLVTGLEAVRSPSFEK
In words: solid phase receptor binding assay, blocking: FGF19 binding to captured FGFR4-Fc with antibody titrated. Here is the method: (§1) Maxisorb 96 well plates were coated overnight at 4° C. with 50 μl of 2 μg/ml anti-human immunoglobulin Fcγ fragment specific antibody (Jackson Immunoresearch) and used to capture 1 μg/ml FGFR-Fc chimeric proteins (R & D Systems).

The target of experiment [2] is T2, hu FGF-19-His (human, UniProt O95750 25-216, limits assumed).
T2 construct: Analyte in SPR; Construct limits and tag not described; not shown: His tag
T2 sequence (O95750 25-216 limits assumed): as above
Put plainly: solid phase antibody binding assay: FGF19-His captured on nickel coated plates, HRP anti-mouse IgG. An excerpt: (§2) Non-specific binding sites of HisGrab Nickel coated plates (Pierce) were saturated with PBS/3% BSA. […] The bound antibodies were detected using a HRP conjugated anti-mouse IgG (Jackson Immunoresearch) and the TMB peroxydase colorigenic substrate (KPL).

Experiment [3] deals with T2, hu FGF-19-His. In words: ELISA, FGF19-His captured on nickel plates, HRP anti-mouse IgG detection; ELISA binding EC50.
Source text: as §2
For orientation: An ELISA detects its analyte on a solid surface through an enzyme-linked reagent.

Experiment [4] deals with T1, FGF19 protein. Put plainly: solid phase receptor binding assay: FGF19 binding to captured FGFR4-Fc with antibody present; solid phase receptor binding assay, blocking of FGF19 binding to FGFR4. Here is the method:
as §1

Experiment [5] has as its target T2, hu FGF-19-His. Put plainly: SPR, BIAcore-3000, antibody coupled to CM5 chip (~500 RU), FGF19-His injected 0.7-500 nM, 25 C, 1:1 Langmuir model. Here is the method: Briefly, carboxymethylated dextran biosensor chips (CM5, BIAcore Inc.) were activated with N-ethyl-N′-(3-dimethylaminopropyl)-carbodiimide hydrochloride (EDC) and N-hydroxysuccinimide (NHS) according to the supplier's instructions. […] Next, 1M ethanolamine was injected to block unreacted groups. […] Association rates (kₒₙ) and dissociation rates (koff) were calculated using a simple one-to-one Langmuir binding model (BIAcore Evaluation Software version 3.2).
(In SPR one partner is held on a chip, and binding of the other changes the refractive index at the surface.)

B1: mouse anti-human FGF19 monoclonal antibody 1A6 (antibody, V domains shown)
VH: QVQLKQSGPGLVQPSQSLSITCTVSGFSLTTYGVHWVRQSPGKGLEWLGVIWPGGGTDYNAAFISRLSITKDNSKSQVFFKMNSLLANDTAIYFCVRKEYANLYAMDYWGQGTLLTVSA
VL: DIKMTQSPSSMYASLGERVTIPCKASQDINSFLSWFQQKPGKSPKTLIYRANRLVDGVPSRFSGSGSGQDYSLTISSLEYEDMGIYYCLQYDEFPLTFGAGTKVEIKR
notes: Mouse hybridoma monoclonal antibody, purified from ascites on protein A-agarose; also called anti-FGF19 mab 1A6; anti-FGF19 Mab 1A6
Consider B1, for which, in the experiment with FGF19 protein [1], the “IC50 (read off the curve)” value is roughly 0.5 µg/mL. The concentration giving a half-maximal response (EC50 (read off the curve)) in the experiment with hu FGF-19-His [2] is roughly 0.03 µg/mL. The molecule further registered an EC50 with hu FGF-19-His [3] of 0.04 nM. Further, the IC50 with FGF19 protein [4] came to 3 nM. In the experiment with hu FGF-19-His [5], this molecule registered an equilibrium dissociation constant (Kd) of less than 9 pM.
